Source: US20220025055A1 (Boehringer Ingelheim, published 2022)

T1: human FLT3 (FMS-like tyrosine kinase 3) (human, UniProt P36888 27-993)
T1 sequence (looked up): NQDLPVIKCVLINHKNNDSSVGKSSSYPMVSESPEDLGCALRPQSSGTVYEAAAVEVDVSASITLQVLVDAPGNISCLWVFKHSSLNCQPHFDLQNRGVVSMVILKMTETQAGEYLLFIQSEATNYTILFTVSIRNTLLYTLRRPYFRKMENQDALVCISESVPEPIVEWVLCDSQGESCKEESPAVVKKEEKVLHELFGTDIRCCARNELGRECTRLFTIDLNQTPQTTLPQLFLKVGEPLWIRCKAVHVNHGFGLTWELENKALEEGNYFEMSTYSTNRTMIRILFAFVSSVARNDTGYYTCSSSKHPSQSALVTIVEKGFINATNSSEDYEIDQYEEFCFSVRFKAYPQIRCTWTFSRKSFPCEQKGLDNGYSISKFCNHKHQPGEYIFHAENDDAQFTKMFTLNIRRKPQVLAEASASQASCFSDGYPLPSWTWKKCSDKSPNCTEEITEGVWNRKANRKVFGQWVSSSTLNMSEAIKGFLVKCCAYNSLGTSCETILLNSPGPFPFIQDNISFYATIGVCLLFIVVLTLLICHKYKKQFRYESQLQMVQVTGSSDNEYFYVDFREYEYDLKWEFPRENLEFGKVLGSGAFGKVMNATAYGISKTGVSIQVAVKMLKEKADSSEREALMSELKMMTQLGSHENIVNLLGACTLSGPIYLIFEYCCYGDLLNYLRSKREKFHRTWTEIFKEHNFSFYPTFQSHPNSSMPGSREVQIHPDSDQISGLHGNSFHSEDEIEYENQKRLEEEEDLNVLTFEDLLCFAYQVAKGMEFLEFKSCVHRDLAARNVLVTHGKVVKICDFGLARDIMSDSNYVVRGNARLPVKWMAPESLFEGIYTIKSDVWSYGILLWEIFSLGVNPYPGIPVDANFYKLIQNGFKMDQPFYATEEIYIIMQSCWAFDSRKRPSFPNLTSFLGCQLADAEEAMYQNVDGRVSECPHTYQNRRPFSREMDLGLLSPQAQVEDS


These binders were tested against T1, human FLT3 (FMS-like tyrosine kinase 3) (assay: cell-based or functional assay).

| Binder | EC50 in AML5 proliferation assay [pM] |
| --- | --- |
| Humanized VH4 x Humanized VL4 (antibody, V domains shown) VH: QVQLVESGGGVVQPGRSLRLSCAASGFTFSNYGMAWVRQAPGKGLEWVASIHSGGGDTYYRDSVKGRFTISRDNSKNTLYLQMNSLRAEDTATYYCARGRTPTGYYFDHWGQGTMVTVSS VL: DIQMTQSPSSLSASVGDRVTITCRASEGIHNGLAWYQQKPGKAPKRLIYNANSLHSRVPSRFSGSGSGTEFTLTISSLQPEDFATYYCQQYYDYPLTFGQGTKLEIK | 95 |
| Humanized VH4 x Humanized VL3 (antibody, V domains shown) VH: QVQLVESGGGVVQPGRSLRLSCAASGFTFSNYGMAWVRQAPGKGLEWVASIHSGGGDTYYRDSVKGRFTISRDNSKNTLYLQMNSLRAEDTATYYCARGRTPTGYYFDHWGQGTMVTVSS VL: AIQLTQSPSSLSASVGDRVTITCRASEGIHNGLAWYQQKPGKAPKLLIYNANSLHSRVPSRFSGSGSGTDFTLTISSLQPEDFATYFCQQYYDYPLTFGQGTKLEIK | 91 |
| Humanized VH2 x Humanized VL3 (antibody, V domains shown) VH: EVQLVESGGGLVQPGGSLRLSCAASGFTFSNYGMAWVRQAPGKGLEWVASIHSGGGDTYYRDSVKGRFTISRDNAKNSLYLQMNSLRAEDTAVYYCARGRTPTGYYFDHWGQGTMVTVSS VL: AIQLTQSPSSLSASVGDRVTITCRASEGIHNGLAWYQQKPGKAPKLLIYNANSLHSRVPSRFSGSGSGTDFTLTISSLQPEDFATYFCQQYYDYPLTFGQGTKLEIK | 91 |
| Humanized VH2 x Humanized VL1 (antibody, V domains shown) VH: EVQLVESGGGLVQPGGSLRLSCAASGFTFSNYGMAWVRQAPGKGLEWVASIHSGGGDTYYRDSVKGRFTISRDNAKNSLYLQMNSLRAEDTAVYYCARGRTPTGYYFDHWGQGTMVTVSS VL: DIQMTQSPSSLSASVGDRVTITCRASEGIHNGLAWYQQKPGKVPKLLIYNANSLHSGVPSRFSGSGSGTDFTLTISSLQPEDVATYFCQQYYDYPLTFGQGTKLEIK | 80 |
| Humanized VH3 x Humanized VL5 (antibody, V domains shown) VH: EVQLVESGGGLVQPGGSLRLSCAPSGFTFSNYGMAWVRQAPGKGLVWVSSIHSGGGDTYYRDSVKGRFTISRDNAKNTLYLQMNSLRAEDTAVYYCARGRTPTGYYFDHWGQGTMVTVSS VL: EIVMTQSPATLSVSPGERATLSCRASEGIHNGLAWYQQKPGQAPRLLIYNANSLHSGIPARFSGSGSGTEFTLTISSLQSEDFAVYFCQQYYDYPLTFGQGTKLEIK | 70 |
| Humanized VH4 x Humanized VL1 (antibody, V domains shown) VH: QVQLVESGGGVVQPGRSLRLSCAASGFTFSNYGMAWVRQAPGKGLEWVASIHSGGGDTYYRDSVKGRFTISRDNSKNTLYLQMNSLRAEDTATYYCARGRTPTGYYFDHWGQGTMVTVSS VL: DIQMTQSPSSLSASVGDRVTITCRASEGIHNGLAWYQQKPGKVPKLLIYNANSLHSGVPSRFSGSGSGTDFTLTISSLQPEDVATYFCQQYYDYPLTFGQGTKLEIK | 82 |
| Humanized VH3 x Humanized VL3 (antibody, V domains shown) VH: EVQLVESGGGLVQPGGSLRLSCAPSGFTFSNYGMAWVRQAPGKGLVWVSSIHSGGGDTYYRDSVKGRFTISRDNAKNTLYLQMNSLRAEDTAVYYCARGRTPTGYYFDHWGQGTMVTVSS VL: AIQLTQSPSSLSASVGDRVTITCRASEGIHNGLAWYQQKPGKAPKLLIYNANSLHSRVPSRFSGSGSGTDFTLTISSLQPEDFATYFCQQYYDYPLTFGQGTKLEIK | 51 |

Further lines, results first:

| EC50 in AML5 proliferation assay [pM] | Binder |
| --- | --- |
| 98 | Humanized VH4 x Humanized VL5 (antibody, V domains shown) VH: QVQLVESGGGVVQPGRSLRLSCAASGFTFSNYGMAWVRQAPGKGLEWVASIHSGGGDTYYRDSVKGRFTISRDNSKNTLYLQMNSLRAEDTATYYCARGRTPTGYYFDHWGQGTMVTVSS VL: EIVMTQSPATLSVSPGERATLSCRASEGIHNGLAWYQQKPGQAPRLLIYNANSLHSGIPARFSGSGSGTEFTLTISSLQSEDFAVYFCQQYYDYPLTFGQGTKLEIK |
| 97 | Humanized VH1 x Humanized VL5 (antibody, V domains shown) VH: EVQLLESGGGLVQPGGSLRLSCAPSGFTFSNYGMAWVRQAPGKGLEWVSSIHSGGGDTYYRDSVKGRFTISRDNSKNTLYLQMNSLRAEDTAVYYCARGRTPTGYYFDHWGQGTMVTVSS VL: EIVMTQSPATLSVSPGERATLSCRASEGIHNGLAWYQQKPGQAPRLLIYNANSLHSGIPARFSGSGSGTEFTLTISSLQSEDFAVYFCQQYYDYPLTFGQGTKLEIK |
| 76 | Humanized VH3 x Humanized VL1 (antibody, V domains shown) VH: EVQLVESGGGLVQPGGSLRLSCAPSGFTFSNYGMAWVRQAPGKGLVWVSSIHSGGGDTYYRDSVKGRFTISRDNAKNTLYLQMNSLRAEDTAVYYCARGRTPTGYYFDHWGQGTMVTVSS VL: DIQMTQSPSSLSASVGDRVTITCRASEGIHNGLAWYQQKPGKVPKLLIYNANSLHSGVPSRFSGSGSGTDFTLTISSLQPEDVATYFCQQYYDYPLTFGQGTKLEIK |
| 105 | Humanized VH1 x Humanized VL3 (antibody, V domains shown) VH: EVQLLESGGGLVQPGGSLRLSCAPSGFTFSNYGMAWVRQAPGKGLEWVSSIHSGGGDTYYRDSVKGRFTISRDNSKNTLYLQMNSLRAEDTAVYYCARGRTPTGYYFDHWGQGTMVTVSS VL: AIQLTQSPSSLSASVGDRVTITCRASEGIHNGLAWYQQKPGKAPKLLIYNANSLHSRVPSRFSGSGSGTDFTLTISSLQPEDFATYFCQQYYDYPLTFGQGTKLEIK |

Target: T1, human FLT3 (FMS-like tyrosine kinase 3)
Assay: cell-based or functional assay
Remark: another data set of the same source

| Binder | Single dose STAT5-Luc assay, activity relative to NB1016 (chimeric), antibody at 1 nM [%] |
| --- | --- |
| Humanized VH5 x Humanized VL4 (antibody, V domains shown) VH: EVQLVESGGVVVQPGGSLRLSCAPSGFTFSNYGMAWVRQAPGKGLEWVSSIHSGGGDTYYADSVKGRFTISRDNSKNSLYLQMNSLRTEDTALYYCARGRTPTGYYFDHWGQGTMVTVSS VL: DIQMTQSPSSLSASVGDRVTITCRASEGIHNGLAWYQQKPGKAPKRLIYNANSLHSRVPSRFSGSGSGTEFTLTISSLQPEDFATYYCQQYYDYPLTFGQGTKLEIK | 77 |
| Humanized VH5 x Humanized VL5 (antibody, V domains shown) VH: EVQLVESGGVVVQPGGSLRLSCAPSGFTFSNYGMAWVRQAPGKGLEWVSSIHSGGGDTYYADSVKGRFTISRDNSKNSLYLQMNSLRTEDTALYYCARGRTPTGYYFDHWGQGTMVTVSS VL: EIVMTQSPATLSVSPGERATLSCRASEGIHNGLAWYQQKPGQAPRLLIYNANSLHSGIPARFSGSGSGTEFTLTISSLQSEDFAVYFCQQYYDYPLTFGQGTKLEIK | 75 |

Further lines, results first:

| Single dose STAT5-Luc assay, activity relative to NB1016 (chimeric), antibody at 1 nM [%] | Binder |
| --- | --- |
| 91 | Humanized VH1 x Humanized VL4 (antibody, V domains shown) VH: EVQLLESGGGLVQPGGSLRLSCAPSGFTFSNYGMAWVRQAPGKGLEWVSSIHSGGGDTYYRDSVKGRFTISRDNSKNTLYLQMNSLRAEDTAVYYCARGRTPTGYYFDHWGQGTMVTVSS VL: DIQMTQSPSSLSASVGDRVTITCRASEGIHNGLAWYQQKPGKAPKRLIYNANSLHSRVPSRFSGSGSGTEFTLTISSLQPEDFATYYCQQYYDYPLTFGQGTKLEIK |
| 72 | Humanized VH1 x Humanized VL2 (antibody, V domains shown) VH: EVQLLESGGGLVQPGGSLRLSCAPSGFTFSNYGMAWVRQAPGKGLEWVSSIHSGGGDTYYRDSVKGRFTISRDNSKNTLYLQMNSLRAEDTAVYYCARGRTPTGYYFDHWGQGTMVTVSS VL: AIQMTQSPSSLSASVGDRVTITCRASEGIHNGLAWYQQKPGKAPKLLIYNANSLHSGVPSRFSGSGSGTDFTLTISSLQPEDFATYYCQQYYDYPLTFGQGTKLEIK |
